Reference: patent publication US7271245B2, “Methods and compositions for inhibition of metastasis” (The Scripps Research Institute, priority 2004, dated 2007)

Legend:
integrin αvβ3 = assay: Flow cytometry, scFv binding to human tumor cell panel
Method: FIGS. 1A, 1B, 1C. Patient derived scFvs Bc-12 and Bc-15 recognize tumor cell integrin αvβ3 in a cation and activation dependent manner. Flow cytometric analyses in TBS with or without 1 mM Ca^2+, 1 mM Mg^2+, or 0.2 mM Mn^2+ as indicated. Binding of soluble scFv detected after incubation with anti-Flag M2 murine mAb followed by FITC-anti mouse F(ab′)2. (A) scFv binding to human melanoma cells (M21: αvβ3 plus other αv integrins) (M21-LIIb: αIIbβ3, no αv integrins) or lung adenocarcinoma cells (UCLA-P3: αv integrins, no β3 integrin). (B) scFv binding to M21 melanoma cells. (C) scFv binding to variants of MDA-MB 435 human breast cancer cells that lack (β^3−) or express αvβ3 either in a non-activated (β3WT, ParentCo) or activated form (β3D723R, Bone, Lung, and BMS metastatic cancer cells isolated from breast cancer patient blood).
(§1) Flow cytometry. scFv binding to human tumor cells was analyzed by flow cytometry, initially with cloned scFv phage and then with purified scFv protein. Per sample, 2×10^5 tumor cells were blocked with goat serum and incubated either with scFv phage (2-5×10^10) (1 h at RT) followed by mouse anti-M13 mAb (Serotec) (30 min on ice) and goat FITC-anti mouse (Pierce) (30 min on ice), or with purified scFv (1.25 to 40 μg/ml, routinely 10 to 15 μg/ml) (45 min on ice), followed by mouse anti-FLAG mAb M2 (Sigma) (30 min on ice) and goat FITC-anti mouse. Binding/washing buffer was TBS with or without divalent cations (1 mM Ca^2+, 1 mM Mg^2+, 0.2 mM Mn^2+). Alternatively, tumor cells were washed in 10 ml of plasma (prepared freshly from human blood anticoagulated with 50 nM D-Phe-D-Pro-D-arginyl chloromethyl ketone, PPACK, Felding-Habermann et al., J. Biol. Chem. 271: 5892-5900, 1996), resuspended in plasma and then incubated sequentially, without washing, with purified scFv (45 min on ice), followed by anti-FLAG M2 (30 min on ice) and FITC-anti mouse (30 min on ice). All samples were counter stained with propidium iodide (PI) and analyzed on a Becton-Dickinson FACScan, with live gate set to exclude PI positive cells.
To generate therapeutic reagents that specifically react with activated αvβ3, a phage display library of single chain antibody fragments (scFv) was exploited. This library was derived from cancer patient blood lymphocyte cDNA libraries and allowed us to test the hypothesis that the expressed immune repertoire contains antibodies that recognize integrin αvβ3, and distinguish between its activated and non-activated forms. Mao et al., Proc. Natl. Acad. Sci. U.S.A 96: 6953-6958, 1999. A subtractive panning approach was designed based on variants of MDA-MB 435 human breast cancer cells. […] Apparently, these cells are selected during metastasis, as variant cells isolated from lung and bone metastases in immune deficient mice express constitutively activated αvβ3. To establish a cell population that uniformly expresses non-activated αvβ3, MDA-MB 435 parental cells were cloned by limiting dilution, and clones tested for αvβ3 functionality. […] A cell line, MDA-MB 435 Lung-Lung, was established which expressed αvβ3 in a constitutively activated form. This variant stems from a lung metastase of an immune deficient mouse whose mammary fat pad had been injected with parental MDA-MB 435 cells. Felding-Habermann et al., Proc. Natl. Acad. Sci. U.S.A 98: 1853-1858, 2001; Rolli et al., Proc. Natl. Acad. Sci. U.S.A 100: 9482-9487, 2003. To enrich for the ability to colonize the lung from the blood stream, the Lung variant was subsequently injected intravenously, and tumor cells cultured 3 weeks later from the excised lung. Parent Combo cells were used to subtract the scFv phage library to eliminate antibodies against antigens shared by the MDA-MB 435 cell variants. […]

alpha IIb beta 3 = biological target: T1, alpha IIb beta 3 (Homo sapiens, UniProt P05106+P08514); assay: Flow cytometry, binding to other RGD-recognizing integrins
T1 construct: M21-LIIb cells (αIIbβ3, no αv integrin); expressed in transfected cells; host or cells: M21-LIIb human melanoma cells
Method: as §1
(§2) To generate therapeutic reagents that specifically react with activated αvβ3, a phage display library of single chain antibody fragments (scFv) was exploited. This library was derived from cancer patient blood lymphocyte cDNA libraries and allowed us to test the hypothesis that the expressed immune repertoire contains antibodies that recognize integrin αvβ3, and distinguish between its activated and non-activated forms. Mao et al., Proc. Natl. Acad. Sci. U.S.A 96: 6953-6958, 1999. A subtractive panning approach was designed based on variants of MDA-MB 435 human breast cancer cells. […] Apparently, these cells are selected during metastasis, as variant cells isolated from lung and bone metastases in immune deficient mice express constitutively activated αvβ3. To establish a cell population that uniformly expresses non-activated αvβ3, MDA-MB 435 parental cells were cloned by limiting dilution, and clones tested for αvβ3 functionality. […] A cell line, MDA-MB 435 Lung-Lung, was established which expressed αvβ3 in a constitutively activated form. This variant stems from a lung metastase of an immune deficient mouse whose mammary fat pad had been injected with parental MDA-MB 435 cells. […] After 5 rounds of subtracting the phage library on Parent Combo cells and panning on Lung-Lung cells, scFv clones were analyzed by flow cytometry for their ability to bind integrin αvβ3 on human tumor cells, and to distinguish between the activated and non-activated forms of the receptor (FIG. 1). […]

integrin αvβ5 = biological target: T2, integrin αvβ5 (Homo sapiens, UniProt P06756+P18084); assay: as above
T2 construct: UCLA-P3 lung adenocarcinoma cells (αv integrins, but no αvβ3); endogenous in cells; host or cells: UCLA-P3 human lung adenocarcinoma cells
T2 sequence (P06756 31-889 limits assumed): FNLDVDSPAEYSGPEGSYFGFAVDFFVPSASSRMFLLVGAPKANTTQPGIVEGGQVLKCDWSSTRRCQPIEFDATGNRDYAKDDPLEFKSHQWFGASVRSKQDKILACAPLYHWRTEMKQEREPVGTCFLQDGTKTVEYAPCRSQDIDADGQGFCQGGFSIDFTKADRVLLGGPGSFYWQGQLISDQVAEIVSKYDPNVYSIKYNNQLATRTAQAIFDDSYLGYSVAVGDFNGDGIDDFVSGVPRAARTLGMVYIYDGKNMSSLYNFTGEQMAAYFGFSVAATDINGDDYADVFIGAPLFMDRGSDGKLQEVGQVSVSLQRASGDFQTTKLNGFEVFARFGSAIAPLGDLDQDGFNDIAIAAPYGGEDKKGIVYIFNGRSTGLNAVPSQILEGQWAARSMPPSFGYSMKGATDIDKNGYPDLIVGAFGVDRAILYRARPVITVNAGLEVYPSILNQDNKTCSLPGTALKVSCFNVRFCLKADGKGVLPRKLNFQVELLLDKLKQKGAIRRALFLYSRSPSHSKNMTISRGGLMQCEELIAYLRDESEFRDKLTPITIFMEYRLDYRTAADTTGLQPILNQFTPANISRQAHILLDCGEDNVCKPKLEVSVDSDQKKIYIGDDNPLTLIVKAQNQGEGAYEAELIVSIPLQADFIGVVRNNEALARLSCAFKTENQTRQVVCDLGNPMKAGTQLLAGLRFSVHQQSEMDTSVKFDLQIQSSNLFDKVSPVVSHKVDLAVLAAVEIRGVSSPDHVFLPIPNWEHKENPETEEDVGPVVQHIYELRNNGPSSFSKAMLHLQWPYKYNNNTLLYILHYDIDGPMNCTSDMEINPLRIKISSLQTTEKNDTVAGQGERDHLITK
T2 sequence (P06756 891-1048 partner limits assumed): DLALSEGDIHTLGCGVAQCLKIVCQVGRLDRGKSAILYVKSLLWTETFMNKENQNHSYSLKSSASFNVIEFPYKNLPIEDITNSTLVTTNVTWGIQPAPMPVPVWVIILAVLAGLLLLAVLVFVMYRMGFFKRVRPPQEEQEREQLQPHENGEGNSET
T2 sequence (P18084 24-799): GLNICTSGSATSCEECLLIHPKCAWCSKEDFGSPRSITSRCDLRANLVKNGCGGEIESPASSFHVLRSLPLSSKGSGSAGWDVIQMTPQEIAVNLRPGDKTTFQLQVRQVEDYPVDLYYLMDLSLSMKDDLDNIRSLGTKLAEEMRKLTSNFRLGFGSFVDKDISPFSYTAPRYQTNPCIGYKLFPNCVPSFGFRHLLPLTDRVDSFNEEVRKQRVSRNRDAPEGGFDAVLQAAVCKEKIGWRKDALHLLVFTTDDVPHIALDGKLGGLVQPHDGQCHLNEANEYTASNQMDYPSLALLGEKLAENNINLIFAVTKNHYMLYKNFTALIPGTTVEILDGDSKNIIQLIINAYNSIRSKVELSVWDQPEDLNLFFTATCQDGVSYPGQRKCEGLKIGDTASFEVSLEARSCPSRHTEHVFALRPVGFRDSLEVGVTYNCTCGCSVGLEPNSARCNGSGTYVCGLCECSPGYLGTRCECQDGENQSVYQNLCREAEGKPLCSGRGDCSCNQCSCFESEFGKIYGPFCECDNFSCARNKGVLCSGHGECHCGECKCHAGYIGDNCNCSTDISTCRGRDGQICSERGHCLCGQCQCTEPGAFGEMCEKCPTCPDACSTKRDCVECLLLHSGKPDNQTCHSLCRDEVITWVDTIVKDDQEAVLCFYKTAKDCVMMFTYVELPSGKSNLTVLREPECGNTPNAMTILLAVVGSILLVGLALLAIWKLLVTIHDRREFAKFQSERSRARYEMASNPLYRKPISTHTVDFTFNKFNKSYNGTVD
Method: as §1, §2

αvβ1 = biological target: T3, αvβ1 (Homo sapiens, UniProt P05556+P06756); assay: as above
T3 construct: UCLA-P3 lung adenocarcinoma cells (αv integrins, but no αvβ3); endogenous in cells; host or cells: UCLA-P3 human lung adenocarcinoma cells
T3 sequence (P06756 31-889 limits assumed): as the sequence (P06756 31-889 limits assumed) above
T3 sequence (P06756 891-1048 partner limits assumed): as the sequence (P06756 891-1048 partner limits assumed) above
T3 sequence (P05556 21-798): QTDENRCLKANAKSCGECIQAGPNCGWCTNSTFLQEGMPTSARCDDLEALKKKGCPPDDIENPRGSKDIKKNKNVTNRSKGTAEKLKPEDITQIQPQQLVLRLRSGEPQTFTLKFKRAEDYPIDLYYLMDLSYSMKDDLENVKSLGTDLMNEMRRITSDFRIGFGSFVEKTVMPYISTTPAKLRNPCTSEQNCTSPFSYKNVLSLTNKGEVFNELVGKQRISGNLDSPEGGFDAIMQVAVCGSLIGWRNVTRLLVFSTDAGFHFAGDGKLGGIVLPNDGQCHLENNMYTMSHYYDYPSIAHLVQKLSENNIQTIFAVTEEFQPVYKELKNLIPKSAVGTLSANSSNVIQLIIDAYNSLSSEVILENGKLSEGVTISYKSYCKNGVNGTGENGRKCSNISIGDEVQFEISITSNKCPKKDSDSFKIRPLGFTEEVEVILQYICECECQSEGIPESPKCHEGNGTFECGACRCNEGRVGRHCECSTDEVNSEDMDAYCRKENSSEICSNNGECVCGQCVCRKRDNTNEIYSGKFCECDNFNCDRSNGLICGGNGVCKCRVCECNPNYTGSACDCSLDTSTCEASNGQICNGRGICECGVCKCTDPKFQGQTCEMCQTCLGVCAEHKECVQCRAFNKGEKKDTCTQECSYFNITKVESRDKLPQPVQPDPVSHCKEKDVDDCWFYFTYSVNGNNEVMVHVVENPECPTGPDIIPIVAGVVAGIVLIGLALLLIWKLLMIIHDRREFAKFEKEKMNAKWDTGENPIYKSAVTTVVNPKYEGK
Method: as §1, §2

binding to alpha IIb beta 3 (alpha IIb beta 3): do not bind | binding to integrin αvβ5 (integrin αvβ5): do not bind | binding to αvβ1 (αvβ1): do not bind
B1: Bc-12: patient derived human scFv antibody against activated αvβ3 with RGD motif in CDR-H3; cDNA ATCC PTA-6303 (protein)
scFv: MAQVQLVQSGAEVKKPGASVKVSCKASGYTFSNYGITWVRQAPGQGLEWMGWINNGNTHYAQKFQGRVTMTTDTSTSTAYMELRSLRSDDTAVYYCARDPRGDDEPYWGQGTLVTVSSGGGGSGGGGSGGGGSEIVLTQSPLSLPVTLGQPASISCRSSQNLVYSDGNTYLSWFQQRPGQSPRRLIYKVSNRDSGVPDRFSGSGSGTDFTLKISRVEAEDIGVYYCMQGTHWPPRTFGQGTKVEIKRGLGGLVDYKDDDDK
binding in the presence of Mn2+ (integrin αvβ3; 0.2 mM Mn^2+): greatly enhanced | binding in the presence of Mg2+ (integrin αvβ3; 1 mM Mg^2+, M21 cells): at the same level as Ca^2+ | effect of Ca2+ on Mn2+ enhanced binding (integrin αvβ3; Ca^2+ combined with Mn^2+, M21 cells): reduced the enhancing effect of Mn^2+ | reactivity with human tumor cells that express or lack αvβ3 (integrin αvβ3; M21, M21-LIIb, UCLA-P3 cells, flow cytometry): reacted only with cells expressing the αvβ3 heterodimer | binding to M21-L cells (integrin αvβ3; M21-L cells (no αv integrins)): failed to bind | cation requirement of binding (integrin αvβ3; TBS with or without divalent cations): showed a cation dependence | binding in the presence of Ca2+ (integrin αvβ3; physiological Ca^2+ levels (1 mM)): measurable | reactivity with M21-L4 cells (integrin αvβ3; αvβ3 expression restored by transfection): did react
